From paper PMC8017925, “Structural basis for differential recognition of phosphohistidine-containing peptides by 1-pHis and 3-pHis monoclonal antibodies” (Proceedings of the National Academy of Sciences of the …, 2021)
One block for each molecule: values may come before it.

Experiments:
[1] = substrate: SCS peptide, 1-pHis form; experiment: BLI; biotinylated pHis peptides (20 nM) on streptavidin biosensors, Fab in solution at varying concentrations; 50 mM Hepes pH 8.0, 150 mM NaCl, 0.05% Tween-20, 0.2% BSA; Octet RED96e; global fit to a 1:1 Langmuir model
[2] = biological target: T1, ACLY peptide, 1-pHis form; experiment: as above
T1 sequence (peptide, biotin on the N-terminus; C-terminal amide; 1-phosphohistidine at position 5): VQFGHAGAC

[3] = biological target: T2, Common-His peptide, 1-pHis form; experiment: as above
T2 sequence (peptide, biotin on the N-terminus; C-terminal amide; 1-phosphohistidine at position 5): GEQLHDLNA

[4] = biological target: T3, NM23 peptide, 1-pHis form; experiment: as above
T3 sequence (peptide, biotin on the N-terminus; C-terminal amide; 1-phosphohistidine at position 5): RNIIHGSDS

[5] = biological target: T4, ACLYana-1-pHis peptide (AGAG-1-pHis-AGAG); experiment: BLI; N-terminally biotinylated peptides (20 nM) on streptavidin biosensors, varying concentrations of Fab in solution; 50 mM Hepes pH 8.0, 150 mM NaCl, 0.05% Tween-20, 0.2% BSA; association 120 s, dissociation 200 s; global fit to a 1:1 Langmuir model; Octet RED96e; in triplicate
T4 sequence (peptide, 1-phosphohistidine at position 5; biotin on the N-terminus): AGAGHAGAG

[6] = biological target: ACLYana-1-pTza peptide (AGAG-1-pTza-AGAG); experiment: as above
[7] = biological target: ACLYana-1-pTza peptide (AGAG-1-pTza-AGAG); experiment: BLI binding kinetics of 1-pHis Fabs with cognate pTza peptide; details: triplicate; for Kd: BLI Octet RED96e, N-terminally biotinylated peptide (20 nM) on streptavidin biosensors, varying Fab concentration, 50 mM Hepes pH 8.0, 150 mM NaCl, 0.05% Tween-20, 0.2% BSA, association 120 s, dissociation 200 s, global fit 1:1 Langmuir; for ka / kd: BLI, immobilized biotinylated ACLYana-1-pTza, 1:1 Langmuir global fit
Method: (§1) Biolayer interferometry (BLI) studies were performed to determine the relative affinity of pHis Fabs to in situ phosphorylated His peptides versus the phosphomimetic substrates. The N-terminally biotinylated peptides were immobilized on streptavidin biosensors and the rate of association (ka) and dissociation (kd) were determined by varying the pHis Fab concentration. Equilibrium dissociation constants (KD) were determined by fitting the experimental data to a 1:1 Langmuir binding model. ACLYana-1-pTza and ACLYana-3-pTza peptides were used to determine affinity to 1-pHis and 3-pHis Fabs, respectively (Fig. 3 A–E and Table 1). […] The two isomers were separated from each other by passing the reaction through affinity columns containing 1-pHis mAbs using SC1-1 or SC50-3 IgGs or 3-pHis mAbs using SC39-4, SC44-8, and SC56-2 IgGs. The eluates thus contained either predominantly 1-pHis or 3-pHis peptides. These peptides were used to determine the affinity to their respective isomer class of pHis Fabs (Fig. 3 F–J, Table 1, and SI Appendix, Fig. S5). […] This experimental observation is well supported by the higher number of hydrogen bonds that support the SC44-8:3-pTza interaction compared to other pHis Fabs (SI Appendix, Table S5). […] There are at least three reasons for the lower affinity of the mAbs for pHis peptides compared to pTza peptides: The continuous hydrolysis of phosphate from the pHis peptides during the course of the experiment (SI Appendix, Fig. S6), a reduction in the number of hydrogen bond interactions due to one less nitrogen in the imidazole ring compared to triazolyl ring (Fig. 4 and SI Appendix, Fig. S8), and inherently different electronic properties of the imidazole and triazolyl rings in His and Tza, respectively ([20]).
(§2) Fig. 3. Binding kinetics of pHis Fabs with cognate pTza and pHis peptides. BLI studies of immobilized peptides (ACLYana-1/3-pTza and phosphorylated ACLYana) with varying concentrations of the pHis Fabs were carried out in triplicate on an Octet Red96e instrument (FortéBio). SC1-1 (A) and SC50-3 (B) pHis Fab interaction with their ACLYana-1-pTza peptides. SC39-4 (C), SC44-8 (D), and SC56-2 (E) pHis Fabs interactions with ACLYana-3-pTza peptides. SC1-1 (F), SC50-3 (G), SC39-4 (H), SC44-8 (I), and SC56-2 (J) pHis Fabs interactions with their affinity-purified ACLYana-pHis peptides are represented, Right. The experimental data are represented in the black dashed lines and the nonlinear least-squares fitting was represented in the red continuous lines. The χ^2 for the goodness of fit is under 1.0 for the all the plots.
(§3) The binding kinetics of pHis Fabs with the peptides (pTza and pHis) were evaluated with an Octet RED96e (FortéBio). Streptavidin-coated biosensors (FortéBio) were presoaked in buffer containing 50 mM Hepes pH 8.0, 150 mM NaCl, 0.05% Tween-20, and 0.2% BSA for 15 min. The biotinylated pTza peptides or pHis peptides (20 nM) with and without phosphoramidate treatment were coated onto these streptavidin biosensors and analyzed for their binding to varying concentrations of the pHis Fabs with an association time of 120 s and dissociation time of 200 s. The entire set of experiments was repeated three times. The data were analyzed using the Octet software (FortéBio) and the rates of association and dissociation were obtained by global fitting data to the 1:1 Langmuir interaction model.

[8] = test system: ACLYana-1-pHis peptide (AGAG-1-pHis-AGAG); experiment: BLI binding kinetics of 1-pHis Fabs with affinity-purified pHis peptide; details: for ka / kd / Kd: BLI, 1:1 Langmuir global fit, triplicate; for ka / kd: affinity-purified ACLYana-1-pHis peptide; for Kd: ACLYana phosphorylated with phosphoramidate (8 h, 23 °C), 1-pHis isomer affinity-purified on 1-pHis IgG column, immobilized on streptavidin biosensors, Hepes pH 8.0; for affinity to 1-pHis peptides, times weaker than the 1-pTza peptides: ratio of BLI KD, 1-pHis versus 1-pTza peptide
Method: as §1, §2, §3
Supplementary methods and materials
Peptide Synthesis. Peptides used for the crystallization were synthesized at Sanofi as described in Fuhs et al. (1). Peptides used in the DSF and BLI experiments were synthesized by the Salk Peptide Synthesis Core. These peptides were N-terminally biotinylated and C-terminally amidated. They were synthesized using standard Fmoc chemistry on a Gyros Protein Technologies Tribute peptide synthesizer with UV monitoring. Following the deprotection, peptides were analyzed by mass spectrometry and analytical HPLC by the Proteomics Core at […]
Salk. […]

[9] = biological target: ACLY peptide, phosphorylated, 3-pHis form; experiment: BLI; N-terminally biotinylated peptides (20 nM) on streptavidin biosensors, varying concentrations of Fab in solution; 50 mM Hepes pH 8.0, 150 mM NaCl, 0.05% Tween-20, 0.2% BSA; association 120 s, dissociation 200 s; global fit to a 1:1 Langmuir model; Octet RED96e; in triplicate
[10] = biological target: T5, ACLYana-3-pHis peptide (AGAG-3-pHis-AGAG); experiment: as above
T5 sequence (peptide, 3-phosphohistidine at position 5; biotin on the N-terminus): AGAGHAGAG

[11] = biological target: ACLYana-3-pTza peptide (AGAG-3-pTza-AGAG); experiment: as above
[12] = substrate: SCS peptide, phosphorylated, 3-pHis form; experiment: as above
[13] = substrate: SCS peptide, 3-pHis form; experiment: BLI; biotinylated pHis peptides (20 nM) on streptavidin biosensors, Fab in solution at varying concentrations; 50 mM Hepes pH 8.0, 150 mM NaCl, 0.05% Tween-20, 0.2% BSA; Octet RED96e; global fit to a 1:1 Langmuir model
[14] = biological target: T6, ACLY peptide, 3-pHis form; experiment: as above
T6 sequence (peptide, biotin on the N-terminus; C-terminal amide; 3-phosphohistidine at position 5): VQFGHAGAC

B1: SC50-3 Fab (Fab, V domains shown)
VH: QSVKESEGGLFKPTDTLTLTCTASGFSLNGYGVIWVRQAPGKGLEWIGSAGAYGRIYYPNWARSRATITRNTNLNTVSLKMTSLTAADTATYFCARRTNVSTSVGFDSWGPGTLVTVSS
VL: DMTQTPSSKSVPVGDTVTINCQASESVYSNNRLSWFQQKPGQPPKLLIYLVSTLASGVPSRFKGSGSGTQFTLTISDVVCDDAATYYCVGYKSSTTDGLAFGGGTEVVVK
Kd [1]: 411 nM | koff [1]: 0.0147 s⁻¹ | kon [1]: 35800 M⁻¹ s⁻¹ | Kd [2]: 194 nM | koff [2]: 0.0247 s⁻¹ | kon [2]: 127000 M⁻¹ s⁻¹ | Kd [3]: 336 nM | koff [3]: 0.0243 s⁻¹ | kon [3]: 72200 M⁻¹ s⁻¹ | Kd [4]: 362 nM | koff [4]: 0.0176 s⁻¹ | kon [4]: 48500 M⁻¹ s⁻¹

B4: SC1-1: Fab of rabbit monoclonal antibody that recognizes 1-pHis (antibody, V domains shown)
VH: QSVEESEGGLFKPTDTLTLTCTASGFSLSGHGVIWVRQAPGKGLEWIGSAGAYGRIYYASWAKSRSTITRNTNLNTVTLKMTSLTAADTATYFCARRSDVGTSVGFDSWGPGTLVTISS
VL: B1 VL
Kd [7]: 24.8 nM | ka [7]: 81300 ± 347 M⁻¹ s⁻¹ | kd [7]: 0.00199 ± 3.19e-06 s⁻¹ | ka [8]: 97300 ± 551 M⁻¹ s⁻¹ | kd [8]: 0.00925 ± 1.33e-05 s⁻¹ | Kd [8]: 95.1 nM | affinity to 1-pHis peptides, times weaker than the 1-pTza peptides [8]: two to four times weaker

B5: SC44-8 Fab (Fab, V domains shown)
VH: QSVKESGRGLVQPGGSLTLTCTASGFSIDSYGFSWVRQAPGKGLEHIGYLTAGGRAFYASWAKSRSTITRNTNENTVTLKMTSLTAADTATYFCAKLGSGNPVAIWGPGTLVTVSS
VL: QVLTQTPSFTSAAVGGTVTINCQSSQSVWRNKNLAWYQQKPGQPPKRLIYAIATLDSGVPSRFSGSGSGTQFTLTISDVQCDDAATYYCVGHYGSENDAYYAFGGGTEVVVK
BLI signal intensity for the association [9]: 0.5 nm | BLI signal intensity for the association [10]: 2 nm | Kd [10]: 18.2 nM | koff [10]: 0.0017 s⁻¹ | kon [10]: 93600 M⁻¹ s⁻¹ | Kd [11]: 0.235 nM | koff [11]: 3.66e-05 s⁻¹ | kon [11]: 156000 M⁻¹ s⁻¹ | BLI signal intensity for the association [12]: 0.5 nm | Kd [13]: 467 nM | koff [13]: 0.0137 s⁻¹ | kon [13]: 29300 M⁻¹ s⁻¹ | Kd [14]: 348 nM | koff [14]: 0.00972 s⁻¹ | kon [14]: 28000 M⁻¹ s⁻¹

More lines, now with the values ahead:

Kd [5]: 28.3 nM | koff [5]: 0.00494 s⁻¹ | kon [5]: 175000 M⁻¹ s⁻¹ | Kd [6]: 16 nM | koff [6]: 0.00136 s⁻¹ | kon [6]: 85100 M⁻¹ s⁻¹
B2: SC50-3 Fab (SC50-3 heavy chain with SC1-1 light chain) (Fab, V domains shown)
VH: B1 VH
VL: B1 VL

Kd [7]: 16 nM | ka [7]: 85100 ± 303 M⁻¹ s⁻¹ | kd [7]: 0.00136 ± 3.19e-06 s⁻¹ | ka [8]: 175000 ± 1010 M⁻¹ s⁻¹ | kd [8]: 0.00494 ± 1.06e-05 s⁻¹ | Kd [8]: 28.3 nM | affinity to 1-pHis peptides, times weaker than the 1-pTza peptides [8]: two to four times weaker
B3: SC50-3: Fab of rabbit 1-pHis monoclonal antibody, expressed with SC50-3 heavy chain and SC1-1 light chain (antibody, V domains shown)
VH: B1 VH
VL: B1 VL
